{"source": "paper doi:10.1101/2022.07.14.500127", "key": {"[1]": {"target": "Vip3Aa Domain I-Domain III truncation variant (Bacillus thuringiensis (Bt 9816C))", "assay": "SEC + other: protein thermal shift"}, "[2]": {"target": "Vip3Aa protoxin (full-length vegetative insecticidal protein Vip3Aa) (Bacillus thuringiensis (Bt 9816C))", "assay": "SEC + other: dynamic light scattering"}, "[3]": {"target": "trypsin-activated DI-DIII of Vip3Aa (DI-DIII^act) (Bacillus thuringiensis (Bt 9816C))", "assay": "SEC"}}}
{"substance": "Vip3Aa Domain I-Domain III truncation variant (domain or fragment)", "values": [{"measurement": "stoichiometry N", "setting": "[1]", "result": 4}]}
{"substance": "Vip3Aa protoxin (full-length vegetative insecticidal protein Vip3Aa) (natural protein)", "values": [{"measurement": "stoichiometry N", "setting": "[2]", "result": 4}]}
{"substance": "trypsin-activated DI-DIII of Vip3Aa (DI-DIII^act) (complex)", "values": [{"measurement": "stoichiometry N", "setting": "[3]", "result": 4}]}
